The target of test [1] is T1, β-catenin (full-length recombinant) (human, UniProt P35222).
T1 chain: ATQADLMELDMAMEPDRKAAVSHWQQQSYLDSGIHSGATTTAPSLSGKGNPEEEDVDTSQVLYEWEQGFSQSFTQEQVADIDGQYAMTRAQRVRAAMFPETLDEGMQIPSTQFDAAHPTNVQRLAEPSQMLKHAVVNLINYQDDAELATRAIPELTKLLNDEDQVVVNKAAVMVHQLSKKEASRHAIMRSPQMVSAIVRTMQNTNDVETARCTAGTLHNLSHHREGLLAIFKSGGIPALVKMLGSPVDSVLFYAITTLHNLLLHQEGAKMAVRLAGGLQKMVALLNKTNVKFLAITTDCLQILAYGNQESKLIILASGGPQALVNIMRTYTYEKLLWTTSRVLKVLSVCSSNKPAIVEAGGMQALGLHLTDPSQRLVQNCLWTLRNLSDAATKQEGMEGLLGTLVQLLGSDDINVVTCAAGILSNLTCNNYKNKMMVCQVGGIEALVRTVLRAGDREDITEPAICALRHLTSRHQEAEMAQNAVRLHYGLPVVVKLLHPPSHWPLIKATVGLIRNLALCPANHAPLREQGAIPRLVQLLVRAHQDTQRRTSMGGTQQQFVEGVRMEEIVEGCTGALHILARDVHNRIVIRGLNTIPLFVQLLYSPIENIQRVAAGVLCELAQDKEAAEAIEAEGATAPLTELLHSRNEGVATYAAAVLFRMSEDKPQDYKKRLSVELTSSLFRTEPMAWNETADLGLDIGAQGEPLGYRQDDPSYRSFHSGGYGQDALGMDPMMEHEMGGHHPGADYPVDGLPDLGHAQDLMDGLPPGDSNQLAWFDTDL
Nature of the test: FP, room temperature.

The target of test [2] is T1, β-catenin (full-length recombinant). The test is described as follows: competition, ALPHA assay vs BCL9 HD2 peptide, pH 6.5.
Test [3] shares this target.

Like-named read-outs stand apart in the source and are kept apart here. Where no end group is shown, it is not given here. [ ]: non-standard residue; d: D form. The star is where a group is joined. Octanoyl = CCCCCCCC(=O)*

What is called Kd is the equilibrium constant for the complex coming apart. Broadly, the IC50 is the midpoint of a concentration-inhibition curve. Octanoyl-[dF][dR][dW][dL][dL][dR][dQ][dL][dA][dR][dL][dA][dQ][dL][dA][dK][dL][dT][dP][dV][dK][dL][dT][dP][dV] (also: FITC conjugate used in the FP assay) [ST316]: the Kd in test [1] is about 126 nM. Also, the half-maximal inhibitory concentration (IC50) in test [2] was about 1000 nM.

B1: BCL9 (protein)
chain: MHSSNPKVRSSPSGNTQSSPKSKQEVMVRPPTVMSPSGNPQLDSKFSNQGKQGGSASQSQPSPCDSKSGGHTPKALPGPGGSMGLKNGAGNGAKGKGKRERSISADSFDQRDPGTPNDDSDIKECNSADHIKSQDSQHTPHSMTPSNATAPRSSTPSHGQTTATEPTPAQKTPAKVVYVFSTEMANKAAEAVLKGQVETIVSFHIQNISNNKTERSTAPLNTQISALRNDPKPLPQQPPAPANQDQNSSQNTRLQPTPPIPAPAPKPAAPPRPLDRESPGVENKLIPSVGSPASSTPLPPDGTGPNSTPNNRAVTPVSQGSNSSSADPKAPPPPPVSSGEPPTLGENPDGLSQEQLEHRERSLQTLRDIQRMLFPDEKEFTGAQSGGPQQNPGVLDGPQKKPEGPIQAMMAQSQSLGKGPGPRTDVGAPFGPQGHRDVPFSPDEMVPPSMNSQSGTIGPDHLDHMTPEQIAWLKLQQEFYEEKRRKQEQVVVQQCSLQDMMVHQHGPRGVVRGPPPPYQMTPSEGWAPGGTEPFSDGINMPHSLPPRGMAPHPNMPGSQMRLPGFAGMINSEMEGPNVPNPASRPGLSGVSWPDDVPKIPDGRNFPPGQGIFSGPGRGERFPNPQGLSEEMFQQQLAEKQLGLPPGMAMEGIRPSMEMNRMIPGSQRHMEPGNNPIFPRIPVEGPLSPSRGDFPKGIPPQMGPGRELEFGMVPSGMKGDVNLNVNMGSNSQMIPQKMREAGAGPEEMLKLRPGGSDMLPAQQKMVPLPFGEHPQQEYGMGPRPFLPMSQGPGSNSGLRNLREPIGPDQRTNSRLSHMPPLPLNPSSNPTSLNTAPPVQRGLGRKPLDISVAGSQVHSPGINPLKSPTMHQVQSPMLGSPSGNLKSPQTPSQLAGMLAGPAAAASIKSPPVLGSAAASPVHLKSPSLPAPSPGWTSSPKPPLQSPGIPPNHKAPLTMASPAMLGNVESGGPPPPTASQPASVNIPGSLPSSTPYTMPPEPTLSQNPLSIMMSRMSKFAMPSSTPLYHDAIKTVASSDDDSPPARSPNLPSMNNMPGMGINTQNPRISGPNPVVPMPTLSPMGMTQPLSHSNQMPSPNAVGPNIPPHGVPMGPGLMSHNPIMGHGSQEPPMVPQGRMGFPQGFPPVQSPPQQVPFPHNGPSGGQGSFPGGMGFPGEGPLGRPSNLPQSSADAALCKPGGPGGPDSFTVLGNSMPSVFTDPDLQEVIRPGATGIPEFDLSRIIPSEKPSQTLQYFPRGEVPGRKQPQGPGPGFSHMQGMMGEQAPRMGLALPGMGGPGPVGTPDIPLGTAPSMPGHNPMRPPAFLQQGMMGPHHRMMSPAQSTMPGQPTLMSNPAAAVGMIPGKDRGPAGLYTHPGPVGSPGMMMSMQGMMGPQQNIMIPPQMRPRGMAADVGMGGFSQGPGNPGNMMF
As for B1, the equilibrium dissociation constant (Kd) in test [3] was about 200 nM.

The values above are taken from patent US20260284139 (published 2026).
